B1: CA185_01979 mouse IgG1 (antibody, V domains shown)
VH: EVHLVESGPGLVKPSQSLSLTCSVTGYSITNSYWDWIRKFPGNKMEWMGYINYSGSTGYNPSLKSRISISRDTSNNQFFLQLNSITTEDTATYYCARGTYGYNAYHFDYWGRGVMVTVSS
VL: DIQMTQSPASLSASLEEIVTITCQASQDIGNWLSWYQQKPGKSPHLLIYGTTSLADGVPSRFSGSRSGTQYSLKISGLQVADIGIYVCLQAYSTPFTFGSGTKLEIKR
notes: also called CA185_01979.0; VR0001842
B2: CA185_01979 mFab (no hinge) (Fab, V domains shown)
VH: B1 VH
VL: B1 VL
notes: also called CA185_01979 Fab

Legend:
[1] = target: T1, human TNFα without compound (apo) (human, UniProt P01375 77-233); assay: SPR BIAcore T200; IgG captured on anti-mouse Fc; apo TNFα 50 nM injected
T1 construct: In-house human TNFα; No compound, DMSO only; also called apo human TNFα; hTNF

[2] = target: T2, human TNFα in complex with compound (2) (human, UniProt P01375 77-233); assay: SPR BIAcore T200; IgG captured on anti-mouse Fc; TNFα 50 nM + 2 µM compound injected
T2 construct: also called human TNFα +compound (2)

[3] = target: T3, human TNFα in complex with compound (1) (human, UniProt P01375 77-233); assay: as above
T3 construct: also called human TNFα +compound (1); TNFα-compound (1) complex

[4] = target: T2, human TNFα in complex with compound (2); assay: SPR BIAcore T200; IgG captured on anti-mouse Fc
[5] = target: T3, human TNFα in complex with compound (1); assay: SPR BIAcore T200; IgG captured on anti-mouse Fc
[6] = target: T3, human TNFα in complex with compound (1); assay: size exclusion chromatography (HPLC), molar excess of Fab

T2 sequence (P01375 77-233 limits assumed, one chain of several): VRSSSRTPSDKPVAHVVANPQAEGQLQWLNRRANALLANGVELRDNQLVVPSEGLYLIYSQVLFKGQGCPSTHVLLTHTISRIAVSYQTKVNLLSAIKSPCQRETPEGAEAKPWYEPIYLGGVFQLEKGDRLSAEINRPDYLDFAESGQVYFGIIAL
T3 sequence (P01375 77-233 limits assumed, one chain of several): as above
T1 sequence (P01375 77-233 limits assumed): as the sequence (P01375 77-233 limits assumed, one chain of several) above

| Binder | Kd [1] | koff [1] | kon [1] | Kd [2] | koff [2] | kon [2] | Kd [3] | koff [3] | kon [3] | log selective binding for compound-distorted against apo human TNFα [4] | log selective binding for compound-distorted against apo human TNFα [5] | stoichiometry (Fab : TNFα trimer) [6] |
| --- | --- | --- | --- | --- | --- | --- | --- | --- | --- | --- | --- | --- |
| B1 | 6700 pM | 0.00071 s⁻¹ | 110000 M⁻¹ s⁻¹ | 58 pM | 3.3e-05 s⁻¹ | 570000 M⁻¹ s⁻¹ | 34 pM | 1.6e-05 s⁻¹ | 470000 M⁻¹ s⁻¹ | > 2 log | > 2 log |  |
| B2 |  |  |  |  |  |  |  |  |  |  |  | 1 Fab per TNFα trimer |

Reference: US20180172701A1 (published 2018)
